As a reminder, the Tm is the temperature at which the thermal transition is half complete.

For this data set the following is noted: Aspergillus oryzae (strain ATCC 42149 / RIB 40), Thermal, DSC, NaCl 80 mM, reversible: yes, whole UniProt chain shown.
[1] abbreviates: pH 6, Sodium cacodylate-HCl 10 mM.
[2] abbreviates: pH 6.5, Sodium cacodylate-HCl 10 mM.
Where [3] appears, read: pH 7, Sodium cacodylate-HCl 10 mM.
Setting [4] is: pH 8.6, Sodium borate-HCl 10 mM.

B1: Guanyl-specific ribonuclease T1 wild type, P00651 (protein)
chain: MMYSKLLTLTTLLLPTALALPSLVERACDYTCGSNCYSSSDVSTAQAAGYQLHEDGETVGSNSYPHKYNNYEGFDFSVSSPYYEWPILSSGDVYSGGSPGADRVVFNENNQLAGVITHTGASGNNFVECT
As to B1, the Tm came out at 58.8 °C (pH 5, Sodium acetate 10 mM); 54.1 °C under setting [1]; 50.9 °C under setting [2]; 48.8 °C under setting [3]; 43.4 °C under setting [4]; 40.7 °C (pH 9.7, glycine-NaOH 10 mM). In addition, the “heat capacity change of unfolding” value (pH 5, Sodium acetate 10 mM) was determined as 0.89 kcal/mol/K; the “heat capacity change of unfolding” value under setting [1] is 1.28 kcal/mol/K; the “heat capacity change of unfolding” value under setting [2] is 1.23 kcal/mol/K; the “heat capacity change of unfolding” value under setting [3] came out at 1.21 kcal/mol/K; the “heat capacity change of unfolding” value under setting [4] worked out at 1.2 kcal/mol/K; the “heat capacity change of unfolding” value (pH 9.7, glycine-NaOH 10 mM) worked out at 1.22 kcal/mol/K. The “unfolding enthalpy (calorimetric)” value is, setting by setting: (pH 5, Sodium acetate 10 mM) 112 kcal/mol; under setting [1], 111 kcal/mol; under setting [2], 106 kcal/mol; under setting [3], 108 kcal/mol; under setting [4], 94.7 kcal/mol; (pH 9.7, glycine-NaOH 10 mM) 79.7 kcal/mol. Moreover, the “unfolding enthalpy (van 't Hoff)” value by setting is: (pH 5, Sodium acetate 10 mM) 115 kcal/mol; under setting [1], 110 kcal/mol; under setting [2], 112 kcal/mol; under setting [3], 108 kcal/mol; under setting [4], 109 kcal/mol; (pH 9.7, glycine-NaOH 10 mM) 102 kcal/mol.

For the origin of these results see FireProtDB (doi:10.1021/bi00177a023).
